Laboratory results published in patent US20260242449A1 (INTERNATIONAL AIDS VACCINE INITIATIVE, published 2026).

B1: BiS13 (bispecific antibody)
heavy: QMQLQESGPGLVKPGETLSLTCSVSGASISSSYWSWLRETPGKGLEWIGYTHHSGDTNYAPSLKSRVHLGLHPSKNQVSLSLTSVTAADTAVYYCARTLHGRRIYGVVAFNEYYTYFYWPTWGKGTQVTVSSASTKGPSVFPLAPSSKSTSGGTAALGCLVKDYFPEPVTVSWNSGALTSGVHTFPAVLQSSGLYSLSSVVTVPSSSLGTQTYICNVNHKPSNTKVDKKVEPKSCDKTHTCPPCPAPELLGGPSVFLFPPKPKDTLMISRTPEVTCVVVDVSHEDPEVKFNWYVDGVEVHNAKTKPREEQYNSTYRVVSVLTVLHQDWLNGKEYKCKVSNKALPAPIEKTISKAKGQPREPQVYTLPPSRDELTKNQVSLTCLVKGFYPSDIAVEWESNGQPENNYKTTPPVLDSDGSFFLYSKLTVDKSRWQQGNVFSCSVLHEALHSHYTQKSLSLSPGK
light: ALTQPRSVSASPGQSVTISCTGTHNLVSWCQHQPGRAPKLLIYDFNKRPSGVPDRFSGSGSGGTASLTITGLQDDDDAEYFCWAYEAFGGGTKLTVLGQGGGGSGGGGSGGGGSADLVQSGAVVKKPGDSVRISCEAQGYRFPDYIIHWIRRAPGQGPEWMGWMNPMGGQVNIPWKFQGRVSMTRDTSIETAFLDLRGLKSDDTAVYYCVRDRSNGSGKRFESSNWFLDLWGRGTAVTIQSGGGGSGGGGSGGGGSGGGGSGGGGSDISVAPGETVRITCGGESIGSRAVQWYQHRPGQAPRLIIYNNQDRPPGIPERFSGSPDIDFGTTATLTISNVEAGDEATYYCHIWDSRRPTNWELGPGTTLTVLGQPKAAPSVTLFPPSSEELQANKATLVCLISDFYPGAVTVAWKADSSPVKAGVETTTPSKQSNNKYAASSYLSLTPEQWKSHKSYSCQVTHEGSTVEKTVAPTECS
B2: ePGT121 (antibody, V domains shown)
VH: QMQLQESGPGLVKPGETLSLTCSVSGASISSSYWSWLRETPGKGLEWIGYTHHSGDTNYAPSLKSRVHLGLHPSKNQVSLSLTSVTAADTAVYYCARTLHGRRIYGVVAFNEYYTYFYWPTWGKGTQVTVSS
VL: SDISVAPGETVRITCGGESIGSRAVQWYQHRPGQAPRLIIYNNQDRPPGIPERFSGSPDIDFGTTATLTISNVEAGDEATYYCHIWDSRRPTNWELGPGTTLTVLG
B3: N49P7 (antibody, V domains shown)
VH: ADLVQSGAVVKKPGDSVRISCEAQGYRFPDYIIHWIRRAPGQGPEWMGWMNPMGGQVNIPWKFQGRVSMTRDTSIETAFLDLRGLKSDDTAVYYCVRDRSNGSGKRFESSNWFLDLWGRGTAVTIQS
VL: ALTQPRSVSASPGQSVTISCTGTHNLVSWCQHQPGRAPKLLIYDFNKRPSGVPDRFSGSGSGGTASLTITGLQDDDDAEYFCWAYEAFGGGTKLTVL

Columns and labels:
Assay in all cases: cell-based or functional assay
[1] = target: HIV-1 Env of pseudovirus BJOX009000.02.4 (clade AE) (HIV-1)
[2] = target: HIV-1 Env of pseudovirus TRO.11-N332A (clade B) (HIV-1)
[3] = target: HIV-1 Env of pseudovirus QH0692.42-N332A (clade B) (HIV-1)
[4] = target: HIV-1 Env of pseudovirus BJOX010000.06.2 (clade AE (T/F)) (HIV-1)
[5] = target: HIV-1 Env of pseudovirus MS208.A1 (clade A) (HIV-1)
[6] = target: HIV-1 Env of pseudovirus CNE8 (clade AE) (HIV-1)
[7] = target: HIV-1 Env of pseudovirus 231965.c01 (clade D) (HIV-1)
[8] = target: HIV-1 Env of pseudovirus Q259.17 (clade A) (HIV-1)
[9] = target: HIV-1 Env of pseudovirus 3016.v5.c45 (clade D) (HIV-1)
[10] = target: HIV-1 Env of pseudovirus X1632.S2.B10 (clade G) (HIV-1)
[11] = target: HIV-1 Env of pseudovirus 6545.V4.C1 (clade AC) (HIV-1)
[12] = target: HIV-1 Env of pseudovirus CAP45.G3 (clade C) (HIV-1)
[13] = target: HIV-1 Env of pseudovirus T257-31 (clade AG) (HIV-1)

Binder	Pseudovirus neutralization IC80 (TZM-bl luciferase) [1]	Pseudovirus neutralization IC80 (TZM-bl luciferase) [2]	Pseudovirus neutralization IC80 (TZM-bl luciferase) [3]	Pseudovirus neutralization IC80 (TZM-bl luciferase) [4]	Pseudovirus neutralization IC80 (TZM-bl luciferase) [5]	Pseudovirus neutralization IC80 (TZM-bl luciferase) [6]	Pseudovirus neutralization IC80 (TZM-bl luciferase) [7]	Pseudovirus neutralization IC80 (TZM-bl luciferase) [8]	Pseudovirus neutralization IC80 (TZM-bl luciferase) [9]	Pseudovirus neutralization IC80 (TZM-bl luciferase) [10]	Pseudovirus neutralization IC80 (TZM-bl luciferase) [11]	Pseudovirus neutralization IC80 (TZM-bl luciferase) [12]	Pseudovirus neutralization IC80 (TZM-bl luciferase) [13]
B1	0.0096 µg/mL	0.0054 µg/mL	0.0311 µg/mL	0.172 µg/mL	0.0998 µg/mL	0.137 µg/mL	0.0157 µg/mL	0.0114 µg/mL	0.0156 µg/mL	0.06 µg/mL	< 0.0001 µg/mL	0.0021 µg/mL	–
B2	0.0428 µg/mL	1.35 µg/mL	> 50 µg/mL	> 50 µg/mL	> 50 µg/mL	> 50 µg/mL	> 50 µg/mL	> 50 µg/mL	> 50 µg/mL	> 50 µg/mL	> 50 µg/mL	5.78 µg/mL	> 50 µg/mL
B3	0.0999 µg/mL	0.0622 µg/mL	0.35 µg/mL	0.453 µg/mL	0.194 µg/mL	0.175 µg/mL	0.196 µg/mL	0.163 µg/mL	0.516 µg/mL	0.27 µg/mL	1.76 µg/mL	0.112 µg/mL	0.577 µg/mL
